According to patent US20190330277A1:
Values joined by “and” are separate entries in the source; they are usually repeats but may differ in a detail not shown here. Identical values can stand only once.

How the values were obtained:
[1] = target: 391-2 sc9 DS-Cav1 98C-362C; experiment: ELISA, variant from culture supernatant on Ni-NTA plate
391-2-DS-Cav1-IP-5 = experiment: as above
[2] = target: 391-2-DS-Cav1-sc9 100C-361C; experiment: as above
[3] = target: 391-2-DS-Cav1-sc9 99C-361C; experiment: as above
[4] = target: 391-2-DS-Cav1-sc9 99C-362C; experiment: as above
[5] = target: 391-2-DS-Cav1-sc9deleteFS 100C-362C; experiment: as above
[6] = target: 391-2-DS-Cav1-sc9deleteFS 98C-362C; experiment: as above
[7] = target: 391-2-DS-Cav1_ sc9_S485C-A490C; experiment: as above
[8] = target: 391-2-DS-Cav1_ sc9_T449C-V459C; experiment: as above
391-2wt-F_SC_11R = experiment: as above
391-2wt_F-SC_12R core = experiment: as above
[9] = target: RB94 sc9 DS-CAV1 A149C-Y458C L373R Long K226L; experiment: as above
[10] = target: RB94 sc9 DS-CAV1 N183GC-N428C L373R Long; experiment: as above
[11] = target: RB94 site 0 hRSV DS-Cav1 Long FdPL; experiment: as above
[12] = target: RB94 site 0 hRSV bovSurf DS-Cav1 Long FdPL; experiment: as above
[13] = target: RB94 site 0 hRSV bovSurf DS-Cav1-BZGJ9 Long FdPL; experiment: as above
[14] = target: sc9-10_DS-CAV1_bRSV(RB94)_Fd_fp2_ig1; experiment: as above
[15] = target: sc9-10_DS-CAV1_bRSV(RB94)_Fd_hp1_fp1_ig1; experiment: as above
[16] = target: sc9-10_DS-CAV1_bRSV(RB94)_Fd_hp1_fp2_ig1; experiment: as above
[17] = target: sc9-10_DS-CAV1_bRSV(RB94)_Fd_pm1_fp2_ig1; experiment: as above
391-2-DS-Cav1- F-SC_11R = experiment: ELISA, variant from culture supernatant on Ni-NTA plate [continued]
[18] = target: 391-2-DS-Cav1-BZGJ9_gyc10; experiment: as above
391-2-DS-Cav1-BZGJ9_gyc2 = experiment: as above
391-2-DS-Cav1-BZGJ9_gyc3 = experiment: as above
391-2-DS-Cav1-BZGJ9_gyc4 = experiment: as above
391-2-DS-Cav1-BZGJ9_gyc6 = experiment: as above
[19] = target: 391-2-DS-Cav1-BZGJ9deleteFS; experiment: as above
391-2-DS-Cav1-BZGJ9 = experiment: as above
391-2-DS-Cav1-IP-2 = experiment: as above
391-2-DS-Cav1-IP-7 = experiment: as above
391-2-DS-Cav1-SC-IP-1 = experiment: as above
391-2_DS-Cav1-tzsc2 = experiment: as above
391-2_DS-Cav1-tzsc4 = experiment: as above
391-2_DS-Cav1-tzsc6 = experiment: as above
391-2_DS-Cav1-tzsc9 = experiment: as above
[20] = target: RB94 DS-CAV1 N70K S104F K117T; experiment: as above
[21] = target: RB94_sc9-10 DS-CAV1 L373R; experiment: as above
[22] = target: sc9-10_DS-CAV1_bRSV(RB94)_Fd_(hRSV-leader)_ig1; experiment: as above
[23] = target: sc9-10_DS-CAV1_bRSV(RB94)_Fd_fp1_ig1; experiment: as above

motavizumab (antibody)
ELISA binding value [1]: 0.75
ELISA binding value (391-2-DS-Cav1-IP-5): 1.83
ELISA binding value [2]: 1.63
ELISA binding value [3]: 1.68
ELISA binding value [4]: 0.393
ELISA binding value [5]: 0.503
ELISA binding value [6]: 0.589
ELISA binding value [7]: 0.595
ELISA binding value [8]: 0.49
ELISA binding value (391-2wt-F_SC_11R): 1.79
ELISA binding value (391-2wt_F-SC_12R core): 0.821
ELISA binding value [9]: 0.486
ELISA binding value [10]: 0.488
ELISA binding value [11]: 1.75
ELISA binding value [12]: 1.86
ELISA binding value [13]: 2.21
ELISA binding value [14]: 0.748
ELISA binding value [15]: 2.22
ELISA binding value [16]: 1.8
ELISA binding value [17]: 1.32
ELISA binding value (391-2-DS-Cav1- F-SC_11R): 0.538
ELISA binding value [18]: 0.461
ELISA binding value (391-2-DS-Cav1-BZGJ9_gyc2): 1.58
ELISA binding value (391-2-DS-Cav1-BZGJ9_gyc3): 0.599
ELISA binding value (391-2-DS-Cav1-BZGJ9_gyc4): 0.486
ELISA binding value (391-2-DS-Cav1-BZGJ9_gyc6): 1.05
ELISA binding value [19]: 0.152
ELISA binding value (391-2-DS-Cav1-BZGJ9): 0.5
ELISA binding value (391-2-DS-Cav1-IP-2): 0.556
ELISA binding value (391-2-DS-Cav1-IP-7): 0.546
ELISA binding value (391-2-DS-Cav1-SC-IP-1): 1.1
ELISA binding value (391-2_DS-Cav1-tzsc2): 0.366
ELISA binding value (391-2_DS-Cav1-tzsc4): 0.639 and 0.505
ELISA binding value (391-2_DS-Cav1-tzsc6): 0.527
ELISA binding value (391-2_DS-Cav1-tzsc9): 1.59
ELISA binding value [20]: 0.271
ELISA binding value [21]: 0.689
ELISA binding value [22]: 0.538
ELISA binding value [23]: 0.545
